Experiments:
[1] = system: N[C@@H](CCC(=O)N[C@@H](CSCc1ccc([N+](=O)[O-])cc1)C(=O)NCC(=O)O)C(=O)O; assay: glutamate release assay, Km of hydrolysis; format: biochemical, Homo sapiens
[2] = system: CSC[C@H](NC(=O)CC[C@H](N)C(=O)O)C(=O)NCC(=O)O; assay: glutamate release assay, Km of hydrolysis; format: biochemical, Homo sapiens
[3] = system: CCCCC/C=C\C\C=C/C=C/C=C/[C@@H](SC[C@H](NC(=O)CC[C@H](N)C(=O)O)C(=O)NCC(=O)O)[C@@H](O)CCCC(=O)O; assay: purified protein; settings: substrate binding site

Substance: gamma-glutamyl transpeptidase (GGT1) (Homo sapiens)
- Km [1]: 13.10 ± 0.05 µM
- kcat [1]: 103 ± 6.67 s⁻¹
- kcat/Km [1]: 7.83e+06 ± 500000 M⁻¹ s⁻¹
- Km [2]: 9.90 ± 0.07 µM
- kcat [2]: 95 ± 3.33 s⁻¹
- kcat/Km [2]: 9.5e+06 ± 333000 M⁻¹ s⁻¹
- Km [3]: 10.8 ± 0.1 µM
- kcat [3]: 88.3 s⁻¹
- kcat/Km [3]: 8.17e+06 M⁻¹ s⁻¹
